The values below come from the nanobody polyreactivity screen of Harvey et al. (2022).

The nature of this data set: yeast display, Sf9 membrane polyspecificity reagent, FACS + sequencing; frameworks hold sequencing errors. In outline: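 Galactose-induced (36–48 hours) yeast carrying a synthetic nanobody display library were exposed to 10% biotinylated, detergent-solubilized Sf9 membrane reagent at 4 °C for 1 hour. FACS followed streptavidin microbead enrichment, using low and high (top ~1%) gates for expression (anti-HA) and reagent binding (streptavidin). Colony PCR, MiSeq 2 × 250 sequencing and CDR-length filtering followed. Labels for polyreactivity reflect the gate of origin.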
Regarding “QVQLVESGGGLVQAGGSLRLSCAASGSTFHRYAMGWYRQAPGKERQLVARINGSGGSTYYADSVKGRFTISRDNAKNTVYLQMNSLKPEDTAVYYCNARAVSVRASTKVPSGLYDFWGQGTQVTVSS”, the “polyreactivity (PSR sort gate)” value is reported as “low polyreactivity”.
The entry for “QVQLVESGGGLVQAGGSLRLSCAASGSTFHRYPMGWYRQAPGKERELVAAISVRTGSTYYADSVKGRFTISRDNAKNTDYLQINRLTPEDTAVYYCAVGKQINGKIYRYDYWGQGTQVTVSS” is “high polyreactivity”; for “QVQLVESGGGLVQAGGSLRLSCAASGSTFHSNAMGWYRQAPGKEREVVATISFGGGSKYYADSVKGRFTISRDNAKNTVYLQMNSLKPEDTAVYYCARDQTFGPCPYVWYYYPGYDYWGQGTQVTVSS” it is “low polyreactivity”.
For “QVQLVESGGGLVQAGGSLRLSCAASGSTFHSYAMGWYRQAPGKERELVAGITWGGGTYYADSVKGRFTISRDNAKNTVYLQMNSLKPEDTAVYYCAALSYVGSNVYTGAPAAPYDYWGQGTQVTVSS” the value was “low polyreactivity”; for “QVQLVESGGGLVQAGGSLRLSCAASGSTFHTNAMGWYRQAPGKERELVDAISRSGTSTYYADSVKGRFTISRDNAKNSVYCQMNSLNPEDTAVYYCAAYGPRVNGEIGREYYYWGQGTQVTVSS”, “low polyreactivity”; for “QVQLVESGGGLVQAGGSLRLSCAASGSTFHTYGMGWYRQAPGKERELVSAIDLSDGSTYYADSVKGRFTISRDNAKNTVYLQMNSLKPEDTAVYYCNADYFPKPYRPDDYWGQGTQVTVSS”, “low polyreactivity”.
For “QVQLVESGGGLVQAGGSLRLSCAASGSTFHVYAMGWYRQAPGKERELVAGITSSGYSTYYADSVKGRFTISRDNAKNTVYLKMNSLKPEETAVYYCNADIRGPYYYHRYDYWGQGTLVTVSS” the value was “low polyreactivity”.
With “QVQLVESGGGLVQAGGSLRLSCAASGSTFHWYDMGWYRPAPGKERELVAGINSSGDGTYYADSVKGRFTISRDNAKNTVYLQMNSLKPEDTAVYYCAAPWWYYGVPYQTNKYDYWGQGTQVTVSS”, the “polyreactivity (PSR sort gate)” value is “low polyreactivity”.
Turning to “QVQLVESGGGLVQAGGSLRLSCAASGSTFHYNAMGWYRQAPGKERELVAAIDNGGRTNYADSVKGRFTISRDNAKNTVYLQMNSLKPEDPAVYYCATRGYFWSFTTSYYHYYYWGQGTQVTVSS”, the “polyreactivity (PSR sort gate)” value is “high polyreactivity”.
For “QVQLVESGGGLVQAGGSLRLSCAASGSTFIANAMGWYRQAPGKERELVAAISASGDSTYYADSVKGRFTISRDNAKNTVYLQMNSLKPEDTAVYYCAADTSVHRHDYWGQGTQVTVSS” the value was “low polyreactivity”.
The entry for “QVQLVESGGGLVQAGGSLRLSCAASGSTFIANAMGWYSQAPGKERELVAGITRGGSTYYADSVKGRFTISRDNAKHTVYLQMNSLNPEDTAVYYCATDLRSYYYQWTYYHWGQATQVTVSS” is “low polyreactivity”.
“QVQLVESGGGLVQAGGSLRLSCAASGSTFIDYAMGWYRQAHGKERELVAGISSGDSTDYADSVKGRFTISRDNAKNTVYLQMNSLKPEDTAVYYCNADWNPTERWFYWYTPLGYDYWGQGTQVTVSS”: the “polyreactivity (PSR sort gate)” value is listed as “low polyreactivity”.
The entry for “QVQLVESGGGLVQAGGSLRLSCAASGSTFIFNAMGWYRQAPGKERELVAAISWRLGRTYYADSVKGRFTISRDNAKKTVYLQMNSLKPEDTAVYYCARDYSRHKGDYWGQGTQVTVSS” is “low polyreactivity”; for “QVQLVESGGGLVQAGGSLRLSCAASGSTFIFYAMGWYRQAPGKERELVAAISSGGITNYADSVKGRFTISRDNAKNTVYLQMNSLKPEDTAVYYCAKRKGPRWSRQYRYPYYSWGQGTQVTVSS” it is “high polyreactivity”.
For “QVQLVESGGGLVQAGGSLRLSCAASGSTFIIYAMGWYRQEPGKEREFVATITGRGGRTYYAVSVKGRFTISRDNAKNTVYLQMNSLKPEDTAVYYCAKGLGSGQEIYGYDYGGQGTQVTVSS” the value was “high polyreactivity”; for “QVQLVESGGGLVQAGGSLRLSCAASGSTFILNAMGWYRQAPGKERELVAAISRSGGNTYYADSVKGRFTISRDIAKNTVYLQMNSLKPEDTAVYYCAATRRSHYYYWGQGTQVTVSS”, “high polyreactivity”; for “QVQLVESGGGLVQAGGSLRLSCAASGSTFIPNAMGWYRQAPGKERELVAAISTGGSTNYADSVKGRFTISRDNAKNTVYLQMNSLKPEDTAVYYCNDRRGYFNPGRRFYYWGQGTQVTVSS”, “low polyreactivity”.
For “QVQLVESGGGLVQAGGSLRLSCAASGSTFIVKAMGWYRHAPGKERELVAAITEDGDTTYYADSVKGRFTISRDNAKKTVYLQMNSLKPEDTAVYYCAAETYYLDDYWGQGTQVTVSS” the value was “high polyreactivity”; for “QVQLVESGGGLVQAGGSLRLSCAASGSTFIVNAMGWYRQAPGKERELVAAIRRGTRTNYADSVKGRFTISRDNAKNTVYLQMNSLKPEDTAVYYCAVRGSYRGWYDYWGQGTQVTVSS”, “high polyreactivity”; for “QVQLVESGGGLVQAGGSLRLSCAASGSTFIVYAMGWYRQAPGKERELVAAISLDGGSTYYADSVKGRFTISRDNAKNTVYLQMNSLKPEDSAVYYCNADYYANSITYDSWGQGSQVTVSS”, “low polyreactivity”.
As to “QVQLVESGGGLVQAGGSLRLSCAASGSTFIWYAMGWYRQAPGKERELVAAINRSGGSTYYADSVKGRFTISRDNAKNTVYLQMNSLKPEDTAVYYCAAQGGGYRGLKYYYWGQGTQVTVSS”, the “polyreactivity (PSR sort gate)” value is on record as “high polyreactivity”.
For “QVQLVESGGGLVQAGGSLRLSCAASGSTFIWYARGWYRQAPGKERELVAAISRSGGSTYYADSVKGRFTISRDNAKNTVYLQMNSLKPEDTAVYYCNTYPTYQYYYWGQGTQVTVSS” the value was “high polyreactivity”; for “QVQLVESGGGLVQAGGSLRLSCAASGSTFIYYAMGWYRKAPGKEREFVAAISYRGGSTYYADSVKGRFTISRDNAKNTVYLQMNSLKPEDTAVYYCAASYRKWNDYWGQGTQVTVSS”, “high polyreactivity”.
For “QVQLVESGGGLVQAGGSLRLSCAASGSTFIYYAMVWYRQAPGKERELVASLSRSGGSTYYADSVKGRFTISRDNAKNTVYLQMNSLKPEDTAVYYCARAYRSSFNYWGQGTQVTVSS” the value was “high polyreactivity”.
The entry for “QVQLVESGGGLVQAGGSLRLSCAASGSTFKAYAMGWYRQAPGKERELVAAITNSDGDTYYADSVKGRFTISRDNAKNTVYLLMNSLKPEDTAVYYFNADDALRQTSDYNYWGQGTQVTVSS” is “low polyreactivity”; for “QVQLVESGGGLVQAGGSLRLSCAASGSTFKAYAMGWYRQAPGKQRELVAAITKSGGRTYYADSVKGRFTISRDNAKNTVYLQMNSLKPEDTAVYYCAAVFRPDSSAYRYYYWGQGTQVTVSS” it is “high polyreactivity”.
“QVQLVESGGGLVQAGGSLRLSCAASGSTFKGNTMGWYRQAPGKERELVAAISWRGGSTYYADSVKGRFTISRDNAKNTVYLQMNSMKPEDTAVYYCAAKSHWWWRGYYYLGQGTQVTVSS”: the “polyreactivity (PSR sort gate)” value is given as “high polyreactivity”.
For “QVQLVESGGGLVQAGGSLRLSCAASGSTFKGYAMGWYRQAPGKERELVAAISSRTGSTYYADSVKGRFTISRDNAKNTVYLQMNSLKPEDTAVYYCAAPWFRDTRGYSLYDYWGQGTQVTVSS” the value was “high polyreactivity”.
For “QVQLVESGGGLVQAGGSLRLSCAASGSTFKINALGWYIQAPGKERELVALIRASGASTYYADSVKGRFTISRDNAKKTVYLRMNILKPEDTAVYYCAATTRGYKWVGRDYDYWGQGTQVTVSS” the value was “high polyreactivity”; for “QVQLVESGGGLVQAGGSLRLSCAASGSTFKIYVMGWYRQAPGKERELVAAISWSGGRTFYADSVKGRFTISRDNAKNTVYLQMNSLKPEDTAVYYCAARWQRYRSGTGDYWGQGTQVTVSS”, “high polyreactivity”; for “QVQLVESGGGLVQAGGSLRLSCAASGSTFKKNAMGWYRQAPGKERELVAAISGIGTRTSYADSVKGRFTISRDNAKNTVYLQMNSLKPEDTAVYYCAARYYGFPSTLKYDYWGQGTQVTVSS”, “high polyreactivity”.
The entry for “QVQLVESGGGLVQAGGSLRLSCAASGSTFKKNAMGWYRQAPGKERELVAAISKRGGRTYYADSVKGRFTISRDNAKNTVYLQMNSLKPEDTAVYYCNAGQQHFDEEEYDYWGQGTQVTVSS” is “high polyreactivity”; for “QVQLVESGGGLVQAGGSLRLSCAASGSTFKKYAIGWYRQAPGKERELVAAITWTGGSTYYADSVKGRFTISRDNAKNTVYLQMNSLKPEDTAVYYCAAYKTYAVKYYWGQGTQVTVSS” it is “high polyreactivity”; for “QVQLVESGGGLVQAGGSLRLSCAASGSTFKKYAMGWYRLAPGKERELVAAITGSGGRTYYADSVKGRFTISRDNAKNTVDLQMNSLKPEDTAVYYCAKLNNYGYDYWGQGTQVTVSS” it is “high polyreactivity”.
Regarding “QVQLVESGGGLVQAGGSLRLSCAASGSTFKLYVMGLYRPAPGKERELVAAIDWSGGSTYYADSVKGRFTISRDNAKNTVYLQMNSLTPEDTAVYYCAADSPNSWRMDYWGQGTQVTVSS”, the “polyreactivity (PSR sort gate)” value was “low polyreactivity”.
As to “QVQLVESGGGLVQAGGSLRLSCAASGSTFKQYTMGWYRQATGKERELVAAINRGGTSTNYADSVKGRFTISRDNAKNTVYLQMNSLKPEDTAVYYCNAGYSWGRYYYWGQGTQVTVSS”, the “polyreactivity (PSR sort gate)” value is “low polyreactivity”.
The entry for “QVQLVESGGGLVQAGGSLRLSCAASGSTFKRNAMGWYRQAPGKERELVAAISSSGGRTYYADSVKGRFTISRDNAKNTVYLQMNSLKPEDTAVYYCAAGIRTSAGYDYWGQGTQVTVSS” is “high polyreactivity”.
The entry for “QVQLVESGGGLVQAGGSLRLSCAASGSTFKRNAMGWYRQAPGKERELVAAISWSGGSTYYADSVKGRFTISRDNAKNTVYLQMNSLKPEDTAVYYCNADHPFPQYEGGSWGQGTQVTVSS” is “low polyreactivity”.
For “QVQLVESGGGLVQAGGSLRLSCAASGSTFKRNAMGWYRQAPGKERELVATITRRGGSTYADSVKGRFTISRDNAKNTVYLQMNSLKPEDTAVYYCARDGFSAGMDYWGQGTQVTVSS” the value was “low polyreactivity”; for “QVQLVESGGGLVQAGGSLRLSCAASGSTFKRNAMGWYRQAPGNERELVAAITDNTSTTFYADSVKGRFTISRDNAKNTVYLQMNSLKPEDTAVYYCAADHSGGSRYDYWGQGTQVTVSS”, “low polyreactivity”.
